Experimental findings from the nanobody polyreactivity screen of Harvey et al. (2022) are described below.

The nature of the data set: yeast display, Sf9 membrane polyspecificity reagent, FACS + sequencing; frameworks hold sequencing errors. The procedure, abridged: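 Nanobodies from a synthetic yeast display library (Saccharomyces cerevisiae BJ5465), induced 36–48 hours with galactose, were stained 1 hour at 4 °C with 10% biotinylated, detergent-solubilized Sf9 membrane reagent, enriched on streptavidin microbeads, then FACS-sorted. Anti-HA (expression) and streptavidin (reagent binding) fluorescence set low and high (top ~1%) gates. Polyreactivity labels come from the gate of origin. Genes were colony-PCR amplified, MiSeq 2 × 250 sequenced and filtered by CDR length.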
In the case of “QVQLVESGGGLVQAGGSLRLSCAASGITFRRYTMGWYRQAPGKERELVAAISRTGGSTYYADSVKGRFTISRDNAKNTVYLQMNSLKPEDTAVYYCAARPHRYTSRHGYWGQGTQVTVSS”, the “polyreactivity (PSR sort gate)” value was “high polyreactivity”. Turning to “QVQLVESGGGLVQAGGSLRLSCAASGITFRRYTMGWYRQAPGKERELVAAITSRGSSTYYADSVKGRFTISRDNAKNTVYLQMNSLKPEDTAVYYCAAQYRQRRHDYWGQGTQVTVSS”, the “polyreactivity (PSR sort gate)” value was “high polyreactivity”. Consider “QVQLVESGGGLVQAGGSLRLSCAASGITFRRYTMGWYRQAPGKERELVATISLSDGNTYYADSVKGRFTISRDNAKNTVYLQMNSLKPEDTAVYYCNALHTWHQTYYYWGQGTQVTVSS”, for which the “polyreactivity (PSR sort gate)” value is “low polyreactivity”. Take “QVQLVESGGGLVQAGGSLRLSCAASGITFRVYVMGWYRQAPGKERELVAAITRSGGRTYYADSVKGRFTISRDNAKNTVYLQMNSLKPEDTAVYYCAAEYDVYGIYEYDYWGQGTQVTVSS”: the “polyreactivity (PSR sort gate)” value was “high polyreactivity”. Take “QVQLVESGGGLVQAGGSLRLSCAASGITFRWYAMGWSRQAPGKERELVAAIDGGGSTYYADSVKGRFTISRDNAKNTVYLQMNSMKPEDTAVYYCAADYGRRYHTPYGWDYYYWGQGTQVTVSS”: the “polyreactivity (PSR sort gate)” value was “high polyreactivity”. In the case of “QVQLVESGGGLVQAGGSLRLSCAASGITFRWYAMGWYRQAPGKEREFVAAIDASGSTYYADSVKGRFTISRDNAKNTVYLQMNSLKPEDTAVYYCAADWDEYFGGDYWGQGTQVTVSS”, the “polyreactivity (PSR sort gate)” value is “low polyreactivity”. For “QVQLVESGGGLVQAGGSLRLSCAASGITFRWYAMGWYRQAPGKERELVALIDGRGASTYADSVKGRFTISRDNAKNTVYLQMNSLKPEDTAVYYCAVAQVRVTYLWVRKFYYWGQGTQVTVSS”, the “polyreactivity (PSR sort gate)” value is “high polyreactivity”. With “QVQLVESGGGLVQAGGSLRLSCAASGITFRYNAMGWYRQAPGKERELVAAISYSGGSTYYADSVKGRFTISRDNAKNTVYLQMNSLKPEDTAVYYCAARIYSYPRGQYDYWGQGTQVTVSS”, the “polyreactivity (PSR sort gate)” value is listed as “low polyreactivity”.

As for “QVQLVESGGGLVQAGGSLRLSCAASGITFRYYAKGWYRQAPGKERELVAAISRAGSTNYADSVKGRFTISRDNAKNTVYLQMNSLKPVDTAVYSCNARRRSTNAVSYRYITPYDYWGQGTQVTVSS”, the “polyreactivity (PSR sort gate)” value was “high polyreactivity”. As to “QVQLVESGGGLVQAGGSLRLSCAASGITFRYYAMGWYRQAPGKERELVADINRGSDTNYADSVKGRFTISRDNAKNTVYLQMNSLKPEDTAVYYCNAYWQGYGYDYWGQGTQVTVSS”, the “polyreactivity (PSR sort gate)” value is reported as “low polyreactivity”.

As for “QVQLVESGGGLVQAGGSLRLSCAASGITFRYYTMGWYRQAPGKERELVAAITTSGTGTYYADSVKGRFTISRDNAKNTVYLQMNSLNPEYSAVYYCATYPHIAVLSRYDYWGQGTQVTVSS”, the “polyreactivity (PSR sort gate)” value is “low polyreactivity”.

Turning to “QVQLVESGGGLVQAGGSLRLSCAASGITFSAYAMGWYRQAPGKERELVARISTDADTYYADSVKGRFTISRDNAKNTVYLQMNSLKPEDTAVYYCNADWSWYNYYDFDYWGQGTQVTVSS”, the “polyreactivity (PSR sort gate)” value was “low polyreactivity”. The entry for “QVQLVESGGGLVQAGGSLRLSCAASGITFSFYVMGWDRQAPRKERELVAAISRGGSTYYADSVKGRFTISRDNAKNTVYLQMNSLKPEDTAVYYCAAVRLSRVYYWGQGTQVTVSA” is “high polyreactivity”; for “QVQLVESGGGLVQAGGSLRLSCAASGITFSGNAKGWYRQAPGKERELDAAITFSGGITYYADSVKGRFTISRDNAKNTVFLQMNSLKPEDTAVYYSATDPIGGWTRPQRYGDDYWGQGTQVTVSS” it is “low polyreactivity”.

For “QVQLVESGGGLVQAGGSLRLSCAASGITFSGNAMGWYRQAPGKEREFVAAITFSGGRTYYADSVKGRFTISRDNAKNTVYLQMNSLKPEDTAVYFCAAETPRGRWLGDYWGQGTQVTVSA”, the “polyreactivity (PSR sort gate)” value is on record as “low polyreactivity”. For “QVQLVESGGGLVQAGGSLRLSCAASGITFSGYDMGWYRQAPWKERELVASSTYYADSVKGRFTISRDNAKNTVYLQMNSLKPEDTAVYYCAADSPGDFGGYGFDYWGQGTQVTVSS” the value was “high polyreactivity”; for “QVQLVESGGGLVQAGGSLRLSCAASGITFSKYAMGWYRQAPGKERELVASITWSGTSTYYADSVKGRFTISRDNAKNTVYLQMNSLKPEDTAVYYCAAEGWGTFWRPPNGYGYEHDYWGQGTQVTVSS”, “low polyreactivity”.

As to “QVQLVESGGGLVQAGGSLRLSCAASGITFSNYSMGWYRQAPGKERELVAAISKRGGSTYYADSVKGRFTISRDNAKNTVYLQMNSLKPEDTAVYNCAAAGVRVYVRSGLDYWGQGTQVTVSS”, the “polyreactivity (PSR sort gate)” value is recorded as “high polyreactivity”. For “QVQLVESGGGLVQAGGSLRLSCAASGITFSRNAMGWYRQAPGKERELVAVISTRGGRTYYADSVKGRFTISRDNAKNTVYLQMNSLKPEDTAVYYCAASPDPYWRRMDYWGQGTQVTVSS” the value was “high polyreactivity”. The entry for “QVQLVESGGGLVQAGGSLRLSCAASGITFSRYAMGWYRQAPGKERELVAAITARGGTTYYADSVKGRFTISRDNAKNTVYLQMNSLKPEDTAVYYCAAYKTYGSKYVFVDPGEYDYWGQGTQVTVSS” is “high polyreactivity”; for “QVQLVESGGGLVQAGGSLRLSCAASGITFSRYAMGWYRQAPGKERELVAAITSSGGSTYYADSVKGRFTISRDNAKNTVYLQMNSLKPEDTAVYYCAATSYYTREQYYYWGQGTQVTVSS” it is “high polyreactivity”; for “QVQLVESGGGLVQAGGSLRLSCAASGITFSSYAMGWSRQAPGKERELVAAIRRRGGTTYYADSVKGPFTISRDNAKNTVYLQMNSLKPEDTAVYYCAARSKSAYWGQGTQVTVSS” it is “high polyreactivity”. Consider “QVQLVESGGGLVQAGGSLRLSCAASGITFSYALGWYRQAPGKERELVAGITTSGGSTYADSVKGRFTISRDNAKNTVYLQMNSLKPEDTAVYYCAADRSAVQFSAFLEYDYWGQGSQVTVSS”, for which the “polyreactivity (PSR sort gate)” value was “low polyreactivity”. On to “QVQLVESGGGLVQAGGSLRLSCAASGITFSYNAMGWYRQAPGKERELVAAISSNSDSTYYADSVKGRFTISRDNAKNTVYLQMISLKPEDTAVYYCADDTPDAPDYSGFYYWGQGTQVTVSS”, for which the “polyreactivity (PSR sort gate)” value is recorded as “low polyreactivity”. For the sequence “QVQLVESGGGLVQAGGSLRLSCAASGITFSYYAMGWYRKAARKERELVAAINGGGSRTYYADSVKGRFTISRDNAKNTVYLQMNSLKPEETAVYYCAAYSGQARGYDYWGQGTQVTVSS”, the “polyreactivity (PSR sort gate)” value is “high polyreactivity”. Regarding “QVQLVESGGGLVQAGGSLRLSCAASGITFSYYAMGWYRPAPGKERELVAAINSGGGSTYYADSVKGRFTISRDNAKNTVYLQMNSLKPEDTAVYYCAARYRSRYDYYYDRDYWGQGTQVTVSS”, the “polyreactivity (PSR sort gate)” value is reported as “low polyreactivity”. “QVQLVESGGGLVQAGGSLRLSCAASGITFTFYAMGWYRQAPGKERELVAAISRRGGSTYYADSVKGRFTISRDNAKNTVYLQMNSLKPEDTAVYYCAARGYRPMDYWGQGTQVTVSS”: the “polyreactivity (PSR sort gate)” value is given as “high polyreactivity”. For the sequence “QVQLVESGGGLVQAGGSLRLSCAASGITFTRYTMGWYRPAPGKERELVAAITGGSTYYADSVKGRFTISRDNAKNTVYLQMNSLKPEDTAVYYCAAAYESPYIQPLDYWGQGTQVTVSS”, the “polyreactivity (PSR sort gate)” value is listed as “high polyreactivity”.

For “QVQLVESGGGLVQAGGSLRLSCAASGITFTSYAMGWYRQAPGKERELVAAISSSGGSTYYADSVKGRFTISRDNAKNTVYLQMNRLKPEDTAVFYCNARPRSRSPRVEYDYWGQGTQVNVSS”, the “polyreactivity (PSR sort gate)” value was “high polyreactivity”. The entry for “QVQLVESGGGLVQAGGSLRLSCAASGITFTSYAMGWYRQAPGKERELVASIDSDDSTNYADSVKGRFTISRDNAKNTVYLQMNSLKPEDTAVYYCAASDNDDWYYVYHYDYWGQGTQVTVSS” is “low polyreactivity”; for “QVQLVESGGGLVQAGGSLRLSCAASGITFTSYVMGWYRQAPGKERELVAAIRWSGGRTYYADSVKGRFTISRDNAKNTVYLQMNSLKPEDTAVYYCNADYAYNSYGYRFYYWGQGTQVTVSS” it is “high polyreactivity”; for “QVQLVESGGGLVQAGGSLRLSCAASGITFTVNAMGWYRQAPGKERELVAAISNDGSTYYADSVKGRFTISRDNAKNTVYLQMNSLKPEDTAVYYCSADTWDDFGPYGYDYWGQGTQVTVSS” it is “low polyreactivity”.

“QVQLVESGGGLVQAGGSLRLSCAASGITFTVYAMGWYRQARGKERELVAAINSGSSTNYADSVKGRFTISRDNAKNTVFLQMNSLKPEDTAVYYCAASYRKLPDKKRYGYWGQGTQVTVSS”: the “polyreactivity (PSR sort gate)” value is given as “high polyreactivity”.

As to “QVQLVESGGGLVQAGGSLRLSCAASGITFTVYTMGWYRQAPGKERELVAAITTSGTTTYYADSVKGRFTISRDNAKNTVYLQINSLKPEDTAVYYCAARQVWGEGVKSYYWGQGTQVTVSS”, the “polyreactivity (PSR sort gate)” value is “high polyreactivity”. In the case of “QVQLVESGGGLVQAGGSLRLSCAASGITFTWYGMGWYRQAPGKERELVAAISLTGARTYYADSVKGRFTISRDNAKNTVYLQMNSLKPEDTAVYYCNARPQGRGGTYLPRYDYWGQGTQVTVSS”, the “polyreactivity (PSR sort gate)” value is reported as “high polyreactivity”. Turning to “QVQLVESGGGLVQAGGSLRLSCAASGITFVANAMGWYRQAPGKERELVAGITQTGGSTYYADSVKGRFTISRDNAKNTVYLQMNSLKPEDTAVYYCAATYRRLRYGKLYYYWGQGTQVTVSS”, the “polyreactivity (PSR sort gate)” value is listed as “high polyreactivity”.

For the sequence “QVQLVESGGGLVQAGGSLRLSCAASGITFVAYAMGWYRQAPGKERELVAAISYNGGSTNYADSVKGRFTISRDNAKNTVYLQMNSLKPEDTAVYYCAADLAEFYPRFNYWGQGTQVTVSS”, the “polyreactivity (PSR sort gate)” value is reported as “low polyreactivity”. With “QVQLVESGGGLVQAGGSLRLSCAASGITFVDYAMGWYRQAPGKEREFVAAISWSGGSTYYADSVKGRFTISRDNAKNTVYLQMNSLKPEDTAVYYCAARPKFGTAHRYYYWGQGTQVTVSS”, the “polyreactivity (PSR sort gate)” value was “high polyreactivity”. For “QVQLVESGGGLVQAGGSLRLSCAASGITFVGYAMGWYRQAPGKERELVAVINTSSSTYYADSVKGRFTISRDNAKNTVYLQLNSLKPEATAVYYCGVRGRYYYRRPQISYEYWGQGTQVTVSS”, the “polyreactivity (PSR sort gate)” value is listed as “low polyreactivity”. The entry for “QVQLVESGGGLVQAGGSLRLSCAASGITFVHNVMGWYRQAPGKDRELVAAINSGGRTYYADSVKGRFTISRDNAKKTVYLQMNSLKPEDSAVYYCAALGDKRGGGHYWGQGTQVTVSS” is “high polyreactivity”. For “QVQLVESGGGLVQAGGSLRLSCAASGITFVHYAMGWYRQAPGKERELVAAISSGGGSTYYADSVKGRFTLSRDHAKNTGNLQMHSLNPEDTAVDNCAAYVLPYGEYDYWGQGTQVTVSS”, the “polyreactivity (PSR sort gate)” value was “low polyreactivity”.
